Patent publication US20200002431A1 (Seagen, published 2020)
Changes are numbered by the printed parent chain.

T1: human BCMA (B-cell maturation antigen, CD269) expressed on cells (human, UniProt Q02223 1-184)
T1 construct: Endogenous on myeloma lines (NCI-H929, U266, JJN3) or a full-length clone transfected into HEK 293 cells; also called hBCMA; BCMA expressed on NCI-H929 cells
T1 sequence: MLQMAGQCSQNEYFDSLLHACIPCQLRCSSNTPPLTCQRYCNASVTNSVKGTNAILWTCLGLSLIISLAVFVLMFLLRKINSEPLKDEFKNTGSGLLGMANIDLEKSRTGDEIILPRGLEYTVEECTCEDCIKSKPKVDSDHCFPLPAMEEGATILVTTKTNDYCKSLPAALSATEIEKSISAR

B1: hSG16.17 vH3 vK2 (antibody, V domains shown)
VH: QVQLVQSGAEVKKPGASVKLSCKASGYTFTDYYIHWVRQAPGQGLEWIGYINPNSGYTNYAQKFQGRATMTADKSINTAYVELSRLRSDDTAVYFCTRYMWERVTGFFDFWGQGTMVTVSS
VL: DIQMTQSPSSVSASVGDRVTITCLASEDISDDLAWYQQKPGKAPKVLVYTTSSLQSGVPSRFSGSGSGTDFTLTISSLQPEDFATYFCQQTYKFPPTFGGGTKVEIKR
notes: also called hSG16.17 9; VH3 VK2 humanized antibody
B2: hSG16.17 vH5 vK4 (antibody, V domains shown)
VH: B1 VH with L20V, N59K, A61N, Q62E, K63N, Q65K, G66T, I76T, R85S, D89E
VL: B1 VL with S53R, L78M, T85D
notes: also called hSG16.17 19
B3: hSG16.17 vH6 vK4 (antibody, V domains shown)
VH: B1 VH with G8R, I34M, Y50I, N59S, A68V, I76T, R85S, D89E
VL: B1 VL with S53R, L78M, T85D
notes: also called hSG16.17 23
B4: hSG16.17 vH2 vK3 (antibody, V domains shown)
VH: B1 VH with I34M, Y50R, A68V
VL: B1 VL with L24R
notes: also called hSG16.17 6
B5: hSG16.17 vH2 vK2 (antibody, V domains shown)
VH: B1 VH with I34M, Y50R, A68V
VL: B1 VL
notes: also called hSG16.17 5
B6: hSG16.17 vH1 vK2 (antibody, V domains shown)
VH: B1 VH with G8R, N59K, A61N, Q62E, K63N, Q65K, G66T
VL: B1 VL
notes: also called hSG16.17 1
B7: hSG16.17 vH5 vK2 (antibody, V domains shown)
VH: B1 VH with L20V, N59K, A61N, Q62E, K63N, Q65K, G66T, I76T, R85S, D89E
VL: B1 VL
notes: also called hSG16.17 17
B8: hSG16.17 vH1 vK3 (antibody, V domains shown)
VH: B1 VH with G8R, N59K, A61N, Q62E, K63N, Q65K, G66T
VL: B1 VL with L24R
notes: also called hSG16.17 2
B9: hSG16.17 vH1 vK5 (antibody, V domains shown)
VH: B1 VH with G8R, N59K, A61N, Q62E, K63N, Q65K, G66T
VL: B1 VL with L24R, P40S
notes: also called hSG16.17 4
B10: hSG16.17 vH6 vK5 (antibody, V domains shown)
VH: B1 VH with G8R, I34M, Y50I, N59S, A68V, I76T, R85S, D89E
VL: B1 VL with L24R, P40S
notes: also called hSG16.17 24
B11: hSG16.17 vH6 vK2 (antibody, V domains shown)
VH: B1 VH with G8R, I34M, Y50I, N59S, A68V, I76T, R85S, D89E
VL: B1 VL
notes: also called hSG16.17 21
B12: hSG16.17 vH3 vK4 (antibody, V domains shown)
VH: B1 VH
VL: B1 VL with S53R, L78M, T85D
notes: also called hSG16.17 11
B13: hSG16.17 vH2 vK4 (antibody, V domains shown)
VH: B1 VH with I34M, Y50R, A68V
VL: B1 VL with S53R, L78M, T85D
notes: also called hSG16.17 7
B14: hSG16.17 vH3 vK5 (antibody, V domains shown)
VH: B1 VH
VL: B1 VL with L24R, P40S
notes: also called hSG16.17 12
B15: hSG16.17 vH3 vK3 (antibody, V domains shown)
VH: B1 VH
VL: B1 VL with L24R
notes: also called hSG16.17 10
B16: hSG16.17 vH5 vK5 (antibody, V domains shown)
VH: B1 VH with L20V, N59K, A61N, Q62E, K63N, Q65K, G66T, I76T, R85S, D89E
VL: B1 VL with L24R, P40S
notes: also called hSG16.17 20
B17: hSG16.17 vH2 vK5 (antibody, V domains shown)
VH: B1 VH with I34M, Y50R, A68V
VL: B1 VL with L24R, P40S
notes: also called hSG16.17 8
B18: hSG16.17 vH6 vK3 (antibody, V domains shown)
VH: B1 VH with G8R, I34M, Y50I, N59S, A68V, I76T, R85S, D89E
VL: B1 VL with L24R
notes: also called hSG16.17 22
B19: hSG16.17 vH5 vK3 (antibody, V domains shown)
VH: B1 VH with L20V, N59K, A61N, Q62E, K63N, Q65K, G66T, I76T, R85S, D89E
VL: B1 VL with L24R
notes: also called hSG16.17 18
B20: hSG16.17 vH1 vK4 (antibody, V domains shown)
VH: B1 VH with G8R, N59K, A61N, Q62E, K63N, Q65K, G66T
VL: B1 VL with S53R, L78M, T85D
notes: also called hSG16.17 3
B21: hSG16.45 vH1 vK1 (antibody, V domains shown)
VH: EVQLLESGGGLVQPGGSLRLSCAASGFTFNDHWMTWIRQAPGKGLEWISSITNTGGATYYLDSVKGRFTISRDNSKNTLYLQMNSLRAEDTAVYYCTSPGLYFDYWGQGVMVTVSS
VL: EIVLTQSPGTLSASPGERVTISCRASSSVSVMYWYQHKPGQAPRLLIYSTSSLASGVPDRFSGSGSGTDYTLTISRMEPEDFAVYYCHQWSSDPPTFGQGTKLEIKR
notes: also called hSG16.45 1
B22: cSG16.45 (antibody, V domains shown)
VH: B21 VH with L5V, G16R, R19K, A23V, K43R, S75A, N77S, A88S, V93T
VL: EIVLTQSPTTTAASPGEKVTITCLATSSVSVMYWYQHKSGASPKLLIYSTSSLASGVPDRFSGSGSGTSYSLTINTMEAEDAATYYCHQWSSDPPTFGSGTKLEIKR
notes: also called chimeric SG16.45
B23: rat SG16.45 antibody (antibody, V domains shown)
VH: B21 VH with L5V, G16R, R19K, A23V, K43R, S75A, N77S, A88S, V93T
VL: B22 VL
notes: Rat monoclonal antibody; also called rSG16.45; hybridoma well 45
B24: hSG16.45 vH6 vK2 (antibody, V domains shown)
VH: B21 VH with L5V, G16R, I37V, I48V, S50G, L61A, S75A, T78S, V93L, V110T
VL: B21 VL with A13L, V19A, I21L, H37Q, V57I, Y70F, M77L
notes: also called hSG16.45 22
B25: hSG16.45 vH6 vK5 (antibody, V domains shown)
VH: B21 VH with L5V, G16R, I37V, I48V, S50G, L61A, S75A, T78S, V93L, V110T
VL: B21 VL with A13L, V19A, I21L, R24L, S26T, V57I, M77L
notes: also called hSG16.45 24
B26: hSG16.45 vH4 vK1 (antibody, V domains shown)
VH: B21 VH with I37V, L61A, N77S, V110T
VL: B21 VL
notes: also called hSG16.45 13
B27: hSG16.45 vH4 vK2 (antibody, V domains shown)
VH: B21 VH with I37V, L61A, N77S, V110T
VL: B21 VL with A13L, V19A, I21L, H37Q, V57I, Y70F, M77L
notes: also called hSG16.45 14
B28: hSG16.45 vH1 vK3 (antibody, V domains shown)
VH: B21 VH
VL: B21 VL with A13L, V19A, M77L
notes: also called hSG16.45 3
B29: hSG16.45 vH6 vK1 (antibody, V domains shown)
VH: B21 VH with L5V, G16R, I37V, I48V, S50G, L61A, S75A, T78S, V93L, V110T
VL: B21 VL
notes: also called hSG16.45 21
B30: hSG16.45 vH6 vK3 (antibody, V domains shown)
VH: B21 VH with L5V, G16R, I37V, I48V, S50G, L61A, S75A, T78S, V93L, V110T
VL: B21 VL with A13L, V19A, M77L
notes: also called hSG16.45 23
B31: hSG16.45 vH5 vK1 (antibody, V domains shown)
VH: B21 VH with L5V, I37V, E46V, I48V, L61A, S75A, V110T
VL: B21 VL
notes: also called hSG16.45 17
B32: hSG16.45 vH4 vK5 (antibody, V domains shown)
VH: B21 VH with I37V, L61A, N77S, V110T
VL: B21 VL with A13L, V19A, I21L, R24L, S26T, V57I, M77L
notes: also called hSG16.45 16
B33: hSG16.45 vH4 vK3 (antibody, V domains shown)
VH: B21 VH with I37V, L61A, N77S, V110T
VL: B21 VL with A13L, V19A, M77L
notes: also called hSG16.45 15
B34: hSG16.45 vH1 vK2 (antibody, V domains shown)
VH: B21 VH
VL: B21 VL with A13L, V19A, I21L, H37Q, V57I, Y70F, M77L
notes: also called hSG16.45 2
B35: hSG16.45 vH3 vK5 (antibody, V domains shown)
VH: B21 VH with S50A, L61A, N77S
VL: B21 VL with A13L, V19A, I21L, R24L, S26T, V57I, M77L
notes: also called hSG16.45 12
B36: hSG16.45 vH1 vK5 (antibody, V domains shown)
VH: B21 VH
VL: B21 VL with A13L, V19A, I21L, R24L, S26T, V57I, M77L
notes: also called hSG16.45 4
B37: hSG16.45 vH5 vK5 (antibody, V domains shown)
VH: B21 VH with L5V, I37V, E46V, I48V, L61A, S75A, V110T
VL: B21 VL with A13L, V19A, I21L, R24L, S26T, V57I, M77L
notes: also called hSG16.45 20
B38: hSG16.45 vH5 vK3 (antibody, V domains shown)
VH: B21 VH with L5V, I37V, E46V, I48V, L61A, S75A, V110T
VL: B21 VL with A13L, V19A, M77L
notes: also called hSG16.45 19
B39: hSG16.45 vH5 vK2 (antibody, V domains shown)
VH: B21 VH with L5V, I37V, E46V, I48V, L61A, S75A, V110T
VL: B21 VL with A13L, V19A, I21L, H37Q, V57I, Y70F, M77L
notes: also called hSG16.45 18

Key:
[1] = molecular target: T1, human BCMA (B-cell maturation antigen, …); assay: cell binding, NCI-H929 cells expressing BCMA, 3-pt assay
Procedure: The six humanized heavy chains and four humanized light chains were tested in all 24 possible permutations for binding to BCMA expressed on NCI-H929 cells, which express about 50,000 molecules of BCMA per cell.

[2] = molecular target: T1, human BCMA (B-cell maturation antigen, …); assay: cell binding, U266 cells, full range of concentration points

Binder	binding result [1]	binding result [2]
B1	binds	–
B2	binds	–
B3	binds	–
B4	–	binds
B5	–	binds
B6	binds	–
B7	binds	–
B8	binds	–
B9	binds	–
B10	binds	–
B11	binds	–
B12	binds	–
B13	–	binds
B14	binds	–
B15	binds	–
B16	binds	–
B17	–	binds
B18	binds	–
B19	binds	–
B20	binds	–

Binder	binding result [1]	binding result [2]
B21	binds	–
B22	binds	–
B23	binds	–
B24	binds	–
B25	binds	–
B26	binds	–
B27	binds	–
B28	binds	–
B29	binds	–
B30	binds	–
B31	binds	–
B32	binds	–
B33	binds	–
B34	binds	–
B35	binds	–
B36	binds	–
B37	binds	–
B38	binds	–
B39	binds	–
